Test results: patent US20160083442

Legend:
[1] = test system: (11R)-Ctrl
[2] = test system: (11R)-71-85

purified p38 proteins activated by incubation with active Zap70
phosphorylation of ATF2 (in vitro kinase assay, [32P]ATP, phosphorimager) [1]: incubation with (11R)-71-85, but not (11R)-Ctrl, led to a decrease in phosphorylation of ATF2 | phosphorylation of ATF2 (in vitro kinase assay, [32P]ATP, phosphorimager) [2]: incubation with (11R)-71-85, but not (11R)-Ctrl, led to a decrease in phosphorylation of ATF2. In addition, the decrease in ATF2 phosphorylation was dependent on the dose of (11R)-71-85
